Source: the supplement of paper PMC10724198
± gives the standard deviation of the averaged measurements.

Test system: Saccharomyces cerevisiae
Experiment: protein stability index of tFT-peptide fusion (C-terminal peptide) (PSI (0-1 scale)); higher = more stable (slower turnover)
Conditions: genetic background: wild type; temperature: 30 C
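Also: PSI is a weighted mean of sequencing reads over stability bins, variants kept only with over 10 reads, mCherry proximal and sfGFP distal, peptide attached via GGGS linker.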

Sequence	protein stability index
RNGFGSWFRWKM	0.7014 ± 0.0069
RNGGSTWPLLGA	0.721 ± 0.017
RNILMFSNGVDE	0.681 ± 0.014
RNLRFEVLAVVI	0.5272 ± 0.0049
RNPYNTNTVSNI	0.732 ± 0.08
RNRKQEKKENKN	0.695 ± 0.022
RNRNKKIIREKK	0.7 ± 0.033
RNSVGGHENWNQ	0.703 ± 0.11
RPAASTKWAVQP	0.6923 ± 0.0021
RPAVSCYTGGDH	0.7083 ± 0.0056
RPDRPSGLLPRP	0.701 ± 0.039
RPFHLLPPPPPL	0.73 ± 0.019
RPFLVGRISFSS	0.693 ± 0.046
RPFPLPPRPSPP	0.673 ± 0.13
RPGSMWAQGGVG	0.566 ± 0.0078
RPISPIAVGSVV	0.6747 ± 0.0013
RPLAVPPRPSPV	0.729 ± 0.049
RPLLIYSPFPLF	0.662 ± 0.075
RPLNLPPPPAPF	0.659 ± 0.072
RPLPPLPRPPSP	0.557 ± 0.02
RPPFSPPSDLPL	0.645 ± 0.025
RPPGQVSEALEW	0.68961 ± 3.4e-05
RPPHSNPPRLVI	0.711 ± 0.045
RPPLLSPTRTLP	0.707 ± 0.15
RPPPHLTPRVSL	0.689 ± 0.047
RPPPHYPHHTAS	0.673 ± 0.018

Sequence	protein stability index
RPPPPPPPSPHL	0.692 ± 0.041
RPPPPRLTPPRL	0.756 ± 0.084
RPPSLSPAPAPP	0.73 ± 0.027
RPPVGTPPLPHS	0.66 ± 0.0091
RPQARAQRRQAC	0.583 ± 0.034
RPRKTVTDLMAG	0.663 ± 0.01
RPRNRRGGRGDE	0.672 ± 0.0062
RPSLPPRSPPPS	0.767 ± 0.069
RPSPMPTATPAT	0.701 ± 0.029
RPSPPPTPPGPH	0.656 ± 0.039
RPSPVLRASHPP	0.638 ± 0.0099
RPSRPPPRLLFA	0.644 ± 0.03
RPTPSHRTPSIG	0.723 ± 0.016
RPVQRLVPLTPR	0.706 ± 0.054
RPVRLLPCVCHF	0.679 ± 0.017
RQANQVSTSAEN	0.726 ± 0.11
RQLPMHLTSPGT	0.66 ± 0.021
RQSDPFCCSTHP	0.7449 ± 0.0023
RQTTTPHDRDGR	0.566 ± 0.049
RQVERRARRDRV	0.671 ± 0.055
RRAPASAFPHSP	0.688 ± 0.06
RRAPRQKLIPAK	0.6768 ± 0.0055
RRDRFSLRGFTE	0.701 ± 0.013
RREASLGSYSFE	0.69778 ± 0.00039
RREDWQEKRYGL	0.761 ± 0.083
RRERRKKTETDK	0.7348 ± 0.0073

Sequence	protein stability index
RRGAVHWKQFTR	0.732 ± 0.072
RRGAVWDLVGDG	0.571 ± 0.029
RRGDMSEGEREE	0.672 ± 0.052
RRGVPIKKPRYF	0.539 ± 0.029
RRGYLVPLPSHA	0.669 ± 0.039
RRHGTDEHKTAD	0.674 ± 0.016
RRKGRKTSMRNG	0.667 ± 0.048
RRKRKQQNTTTE	0.685 ± 0.016
RRKRQKEGEIRE	0.7362 ± 0.0064
RRLATRMGPCDA	0.682 ± 0.011
RRLGVACCVVEG	0.599 ± 0.0061
RRLLERSIKRSE	0.696 ± 0.016
RRLSRPPNLSRH	0.676 ± 0.021
RRMCARRSAAIV	0.665 ± 0.046
RRNSAGCRLDKM	0.662 ± 0.09
RRPHLLCSPARL	0.883 ± 0.012
RRREGGQGERGK	0.694 ± 0.087
RRRGEREKRPRA	0.653 ± 0.021
RRRLRSGYCCLV	0.6861 ± 0.00091
RRRPNSSMYRVS	0.658 ± 0.015
RRSAWCAALPGR	0.704 ± 0.0089
RRSDTTQQSVSL	0.623 ± 0.077
RRSHGLAGPKKG	0.674 ± 0.05
RRSVQLQSALFI	0.736 ± 0.069
RRVPPGTPCGTR	0.708 ± 0.073
RRVTTSFWPLGS	0.671 ± 0.067

Sequence	protein stability index
RSARGQFRGISC	0.739 ± 0.23
RSDGRWYAGGLG	0.737 ± 0.018
RSDIANWFLCLS	0.798 ± 0.037
RSDPLPKTSAAY	0.644 ± 0.12
RSGFTSSPLRSG	0.681 ± 0.034
RSGREFLLSSLI	0.718 ± 0.084
RSGRSLVGREGG	0.703 ± 0.059
RSIQNLQENIIR	0.663 ± 0.073
RSLGLVGWGFWG	0.762 ± 0.12
RSMLRVELSGVA	0.562 ± 0.031
RSPAPPAPPHLP	0.7068 ± 0.0012
RSPPPRAPPPSV	0.645 ± 0.06
RSPPYRPPCLRP	0.722 ± 0.02
RSRAYDSLPADQ	0.682 ± 0.058
RSRVLALSCRSA	0.641 ± 0.029
RSRYWRTHGKVN	0.557 ± 0.028
RSSPAVPPSPRP	0.6918 ± 0.0066
RSSPRCPPSPGH	0.7247 ± 0.0018
RSSSGANLQTTL	0.6517 ± 0.0031
RSTLGLAPPQSG	0.67 ± 0.029
RSTPPHAHRSPP	0.716 ± 0.015
RSVPHPGGPSPC	0.649 ± 0.037
RSVPLLFPSLFL	0.72 ± 0.027
RSVQSATSHGYQ	0.749 ± 0.15
RSYFGLACPSVS	0.626 ± 0.03
RSYGVGYEGDKG	0.719 ± 0.054

Sequence	protein stability index
RTAEGRVRGRPR	0.689 ± 0.067
RTASRSVSTTQN	0.745 ± 0.024
RTGAPSGEACCA	0.676 ± 0.026
RTGRTCADRPTP	0.757 ± 0.043
RTGVTKYSETLI	0.677 ± 0.091
RTIPSPDVRTRD	0.77 ± 0.011
RTKTQGKKRRQN	0.57 ± 0.032
RTPRGCSLAYRA	0.72 ± 0.11
RTRKYEDKSARM	0.688 ± 0.021
RTRRPSRTRSAS	0.772 ± 0.072
RTTNHRLPQPPR	0.632 ± 0.063
RVCPPPLRRLLS	0.693 ± 0.081
RVGERVEGGGVV	0.6085 ± 0.0034
RVGGVVRGERAR	0.671 ± 0.01
RVGSRRGVVCLL	0.7526 ± 0.0014
RVGWCGGWRGGR	0.677 ± 0.059
RVHEMSLGPIRL	0.715 ± 0.036
RVHSRSYNVMLD	0.6988 ± 0.00049
RVIEWHEEKLRV	0.783 ± 0.017
RVKNVDAVKKHK	0.635 ± 0.0088
RVLSVRFRIGRE	0.636 ± 0.061
RVPLHSSTVFWL	0.7 ± 0.04
RVPPAIPSRRAC	0.682 ± 0.06
RVPRYEKIVSSI	0.658 ± 0.013
RVRRWGSSTLVG	0.676 ± 0.041
RVRWRSQRSMVV	0.689 ± 0.025

Sequence	protein stability index
RVSGSFSCVCES	0.6814 ± 0.0054
RVSIDIMNALGR	0.627 ± 0.033
RVSPWSDLSAFL	0.745 ± 0.045
RVVGGRDVRGGG	0.737 ± 0.049
RWFQSSDVVDRQ	0.703 ± 0.086
RWGGWGYRGGVP	0.752 ± 0.062
RWRECVVWGVWG	0.663 ± 0.0096
RWRRGGRRAPWP	0.62 ± 0.012
RWSCLADQSANR	0.7052 ± 0.0051
RWWRLRSGGGRR	0.707 ± 0.017
RYHLHFIGDVGF	0.6974 ± 0.0042
SAGPNCVWSSYN	0.732 ± 0.0098
SAIGVGGVGTGG	0.633 ± 0.039
SALFLVPRASWL	0.659 ± 0.036
SALTSLAFGSFE	0.704 ± 0.046
SAPPLPPPPPPP	0.682 ± 0.016
SAPSAAPPRSHP	0.708 ± 0.025
SAPVPPSPPRPR	0.8 ± 0.0089
SAPYLSTTLSVK	0.671 ± 0.011
SAQGPVLFSTGP	0.716 ± 0.044
SARFALSQAPPI	0.814 ± 0.12
SARSAARRWVRR	0.694 ± 0.026
SASGARVEARMH	0.6435 ± 0.0017
SASLPSPCPDFG	0.6703 ± 0.0021
SASSAHLDGACR	0.691 ± 0.0075
SASSFGTLYCYS	0.6966 ± 0.0019

Sequence	protein stability index
SASVARSRRCVR	0.612 ± 0.057
SASVLPSPLPPV	0.708 ± 0.028
SATLRCASLSFC	0.679 ± 0.014
SATWQLPGYFLI	0.681 ± 0.04
SCFCNFFRFCCI	0.637 ± 0.029
SCFFFSWIRGFC	0.598 ± 0.032
SCFRTLPGRWPF	0.793 ± 0.022
SCLSLSGLPSPL	0.677 ± 0.062
SCSGTIGVYENP	0.684 ± 0.024
SCSVAIFLLSSP	0.6848 ± 0.0025
SCTPPLPFFTSF	0.704 ± 0.028
SCVSDAKMGGLG	0.655 ± 0.084
SCVWVPGCGPSR	0.679 ± 0.0072
SDDGIRLLNQSF	0.59 ± 0.095
SDVHGLSLSDVS	0.632 ± 0.085
SEAGSVMPIGLV	0.642 ± 0.082
SEIKKNKLTVMK	0.677 ± 0.016
SEPPPPTPPPLP	0.679 ± 0.18
SERKRMQRRVVY	0.655 ± 0.021
SERVCHESCLVG	0.68 ± 0.047
SESKMRKVEPKM	0.7459 ± 0.00085
SEVGLSFGLVSF	0.719 ± 0.032
SEYHGRAQKTGP	0.744 ± 0.034
SFAHIVSLPVSM	0.657 ± 0.037
SFAQANRYLTSL	0.699 ± 0.012
SFATPCCYPLHF	0.713 ± 0.037

Sequence	protein stability index
SFCACDRYRIGV	0.727 ± 0.038
SFGGRMSVPTCC	0.594 ± 0.035
SFGSAANSRAYI	0.749 ± 0.042
SFITFGGWLGGM	0.705 ± 0.14
SFLGLDDEICLR	0.716 ± 0.044
SFLISPFSLFSS	0.771 ± 0.051
SFLPHALPATAS	0.682 ± 0.07
SFPFSCSSSVTH	0.72 ± 0.055
SFPPVSSLSFSP	0.707 ± 0.048
SFSAFRCDPAEM	0.676 ± 0.011
SFSLPLSPPSFF	0.721 ± 0.058
SFSPSVLSREVS	0.66 ± 0.066
SFSQTFSSLSSP	0.702 ± 0.054
SFVGPFCLTLSI	0.596 ± 0.092
SFVQLNGAVDLA	0.717 ± 0.031
SGAADGDADRHP	0.721 ± 0.029
SGAGGGGWWGGV	0.731 ± 0.011
SGAGVNWGVGGG	0.728 ± 0.019
SGATVGVLCFAS	0.58 ± 0.006
SGCCCGSDVYIG	0.6905 ± 0.0055
